Experimental findings from patent US20210169929A1 are described below.

In this test the target is CD19 CAR (4G7-CAR) encoded by Construct 1, expressed on transfected HEK293 cells. In words: flow cytometry, HEK293 cells transfected with Construct 1, biotinylated CD19 then streptavidin-PE; unstained 17.4, streptavidin-PE only 18.5. A general note: In flow cytometry, cells or beads pass a laser one at a time.
Chain of CD19 CAR (4G7-CAR) encoded by Construct 1, expressed on transfected HEK293 cells (chain, as listed by the source limits assumed): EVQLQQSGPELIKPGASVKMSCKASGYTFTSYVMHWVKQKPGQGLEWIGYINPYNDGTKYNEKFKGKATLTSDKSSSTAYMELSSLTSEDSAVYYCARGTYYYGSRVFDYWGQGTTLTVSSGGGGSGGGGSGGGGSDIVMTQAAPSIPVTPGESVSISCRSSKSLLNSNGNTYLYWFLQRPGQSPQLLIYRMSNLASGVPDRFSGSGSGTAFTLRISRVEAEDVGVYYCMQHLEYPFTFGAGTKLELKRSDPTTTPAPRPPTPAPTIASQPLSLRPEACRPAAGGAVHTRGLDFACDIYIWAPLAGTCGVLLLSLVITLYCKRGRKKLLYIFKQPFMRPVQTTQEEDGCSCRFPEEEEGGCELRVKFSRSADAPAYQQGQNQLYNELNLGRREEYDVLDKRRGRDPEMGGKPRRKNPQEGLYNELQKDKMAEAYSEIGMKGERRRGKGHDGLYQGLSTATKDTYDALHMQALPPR

“biotinylated CD19 (Acro CD9-H8259, Acro Biosystems) (from UniProt P15391 20-291)” showed a PE (CD19) flow cytometry value of 33.3.
